The target of data set [1] is Major royal jelly protein 1 of Apis cerana (Apis cerana). In words: SEC; gel filtration of royal jelly collected from the nectar of different plants and from different honeybee species (Supplementary Fig. 10A, B).
Data set [2] concerns the target T1, Major royal jelly protein 1 (Apis mellifera, UniProt O18330 20-432, N-acetylglucosamine linked to Asn144 (seen in the crystal after partial deglycosylation); native glycoprotein).
T1 construct: Major royal jelly protein 1 (MRJP1) of the honeybee Apis mellifera; mature protein without N-terminal signal peptide; modelled residues 23-432 (protomer A) and 28-432 (protomer B); Native protein; occurs in royal jelly as a monomer fraction and as an oligomer with apisimin and 24-methylenecholesterol; also called MRJP1; royalactin (the monomer); source: purified from royal jelly (ultrafiltration, …)
T1 sequence (looked up): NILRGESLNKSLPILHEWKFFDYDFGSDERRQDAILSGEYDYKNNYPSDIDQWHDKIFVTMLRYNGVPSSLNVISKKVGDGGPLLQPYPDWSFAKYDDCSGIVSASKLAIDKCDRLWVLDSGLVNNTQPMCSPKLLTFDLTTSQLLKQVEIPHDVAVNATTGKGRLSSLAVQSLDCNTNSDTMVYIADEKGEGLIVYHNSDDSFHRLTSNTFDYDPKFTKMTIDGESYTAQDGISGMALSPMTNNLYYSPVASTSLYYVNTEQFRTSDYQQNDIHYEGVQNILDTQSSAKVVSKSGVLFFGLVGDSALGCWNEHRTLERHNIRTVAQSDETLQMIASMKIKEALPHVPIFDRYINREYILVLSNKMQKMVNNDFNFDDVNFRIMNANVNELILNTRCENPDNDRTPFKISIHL
The data set is described as above.

For data set [3], the target named is T1, Major royal jelly protein 1. In words: SEC + other: SAXS; purified native MRJP1 oligomer at near-neutral pH; SAXS in 20 mM sodium phosphate pH 8, 150 mM NaCl, 0.1-10 mg/mL.
For data set [4] the target is unchanged. Put plainly: crystal structure; native MRJP1 oligomer from royal jelly, deglycosylated with PNGase F; hanging drop, 0.1 M Tris pH 8.5, 2.0 M ammonium phosphate; 2.65 Å, space group H32.
Data set [5] deals with T2, MRJP1 oligomer (MRJP1_4-apisimin4-24-methylenecholesterol8 complex) (Apis mellifera, UniProt O18330+Q8ISL8).
T2 construct: native complex purified from royal jelly; mature chains without signal peptides; partly deglycosylated with PNGase F (NAG left at Asn144); modelled MRJP1 23-432 and 28-432, apisimin 37-77 and 36-78; 254 kDa by AUC
T2 sequence (O18330 20-432): T1 sequence (looked up)
T2 sequence (Q8ISL8 25-78): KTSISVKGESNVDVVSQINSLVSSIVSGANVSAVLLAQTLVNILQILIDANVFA
Put plainly: X-ray crystal structure at […] Å; co-purified ligand identified by GC-MS and NMR. Particulars: co-purified natural ligand; eight per complex (four per asymmetric unit); inner two contact MRJP1 and apisimin, outer two apisimin only; crystals at pH 8.5. The data set is classed as binding.

Data set [6] deals with the molecule itself. In words: crystal structure; native MRJP1 oligomer from royal jelly, deglycosylated with PNGase F; hanging drop, 0.1 M Tris pH 8.5, 2.0 M ammonium phosphate; 2.65 Å, space group H32.

What is called stoichiometry N is a count of units in the complex or per binding partner. Molecule “Major royal jelly protein 1 of Apis cerana (natural protein)” had a stoichiometry N in data set [1] of 4.

Regarding “Major royal jelly protein 1 (from UniProt O18330 20-432) (natural protein)”, the stoichiometry N in data set [2], in data set [3] and in data set [4] was 4 each time.

As to `C=C(CC[C@@H](C)[C@H]1CC[C@H]2[C@@H]3CC=C4C[C@@H](O)CC[C@]4(C)[C@H]3CC[C@]12C)C(C)C` [Osl, 24-methylenecholesterol], the “X-ray crystal structure at 2.65 Å; co-purified ligand identified by GC-MS and NM” value in data set [5] is “The asymmetric unit contains two MRJP1, two apisimin, four unexpected 24-methylenecholesterol (ostreasterol, Osl)”.

B1: apisimin (peptide, UniProt Q8ISL8 25-78, looked up)
chain: T2 sequence (Q8ISL8 25-78)
notes: Apisimin, serine-valine-rich peptide of the honeybee; mature protein without N-terminal signal peptide; modelled residues 37-77 (protomer C) and 36-78 (protomer D); source: co-purified with the native MRJP1 oligomer from royal jelly
As to B1, the binding result in data set [6] and in data set [4] (both partners purified) was “binds” each time.

Values taken from PMC6105727, “Architecture of the native major royal jelly protein 1 oligomer” (Nature Communications, 2018).
